Results as given in US20200168293A1 (UCB, published 2020).

Experiments:
TGFβ1 [1] = target: T1, TGFβ1 (UniProt P01137 279-390); assay: SPR (Biacore)
T1 construct: also called TGFb1

TGFβ3 [2] = target: T2, TGFβ3 (UniProt P10600 301-412); assay: SPR (Biacore)
T2 construct: also called TGFb3
T2 sequence (looked up): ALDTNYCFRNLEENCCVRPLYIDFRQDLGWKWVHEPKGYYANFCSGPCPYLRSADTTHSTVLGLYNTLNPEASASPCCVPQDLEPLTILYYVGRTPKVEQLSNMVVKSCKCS

TGFβ1 [3] = target: T1, TGFβ1; assay: cell-based or functional assay
TGFβ2 = target: T3, TGFβ2 (UniProt P61812 303-414); assay: cell-based or functional assay
T3 sequence (looked up): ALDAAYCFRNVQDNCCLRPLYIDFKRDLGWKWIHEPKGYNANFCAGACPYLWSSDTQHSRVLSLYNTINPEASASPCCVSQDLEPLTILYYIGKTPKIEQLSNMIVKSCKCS

TGFβ3 [4] = target: T2, TGFβ3; assay: cell-based or functional assay
TGFβ1 [5] = target: T1, TGFβ1; assay: SPR (Biacore), Fab immobilized on the chip
TGFβ3 [6] = target: T2, TGFβ3; assay: SPR (Biacore), Fab immobilized on the chip
[7] = target: T4, Keap1 (Kelch 1-6 domains, AA 314-611) (Homo sapiens (Human), UniProt Q14145 321-611); assay: Biacore competition assay (FIG. 33)
T4 construct: Kelch domain expressed in E. coli with an N-terminal His tag and TEV site; the same preparation is described for SPR; also called Kelch-like ECH-associated protein 1; Kelch domain of Keap1
Protocol: (§1) Surface plasmon resonance (SPR) experiments were carried out on a Biacore 3000 system (GE Healthcare) using reagents from the same manufacturer. […] The latter was immobilised to the activated carboxymethyl dextran surface via amine coupling as follows: a fresh mixture of 50 mM N-hydroxysuccimide and 200 mM 1-ethyl-3-(3-dimethylaminopropyl)-carbodiimide was injected for 5 minutes at a flow rate of 10 μl/min, followed by 50 μg/ml anti-human F(ab′)₂ in 10 mM acetate pH 5.0 buffer for 5 min at the same flow rate. Finally the surface was deactivated with a 10 minute pulse of 1 M ethanolamine.HCl pH 8.5. […] Initial binding of Keap1 to expressed Fabs was assessed by injecting 50 μl supernatant, diluted 1 in 5 in running buffer, over the reference and anti-F(ab′)₂ flow cells at a flow rate of 10 μl/min, followed by a 150 μl injection of 0, 500 or 5000 nM Keap1 in running buffer at a flow rate of 30 μl/min. […] Association and dissociation kinetics of Keap1 binding to captured Fabs were determined by the same protocol over at least 8 values of the following concentrations: 75, 100, 150, 250, 350, 500, 750, 1000, 1500, 2500, 3500 and 5000 nM. Zero Keap1 controls were interspersed between the former cycles in order to correct for baseline drift and sham transfected supernatant was assessed at each Keap1 concentration in order to determine and correct for non-specific binding of Keap1.

[8] = target: T4, Keap1 (Kelch 1-6 domains, AA 314-611); assay: Biacore competition assay, % inhibition against [Ab] M, fitted with log concentration vs normalized response/variable slope; neither the sheet nor the text names the surface-bound partner
Protocol: as §1

[9] = target: T4, Keap1 (Kelch 1-6 domains, AA 314-611); assay: SPR, captured Fab, Keap1 analyte
Protocol: Surface plasmon resonance (SPR) experiments were carried out on a Biacore 3000 system (GE Healthcare) and detailed experimental details are given below. Briefly, supernatant containing expressed Fab (or sham transfected supernatant control) was injected over immobilized anti-human F(ab′)₂ polyclonal on a CM5 chip. A second injection of a Keap1 titration or a zero analyte control allowed association and dissociation kinetics to be monitored. Chip regeneration completed each sensorgram cycle. Sensorgrams were corrected for baseline drift, caused by slow dissociation of captured Fab, by subtraction of an adjacent zero analyte control cycle. […] Specificity of Fab binding to Keap1 was assessed by the same protocol by titration of an Nrf2 peptide analogue against a constant concentration of Keap1.
Surface plasmon resonance (SPR) experiments were carried out on a Biacore 3000 system (GE Healthcare) using reagents from the same manufacturer. […] Initial binding of Keap1 to expressed Fabs was assessed by injecting 50 μl supernatant, diluted 1 in 5 in running buffer, over the reference and anti-F(ab′)₂ flow cells at a flow rate of 10 μl/min, followed by a 150 μl injection of 0, 500 or 5000 nM Keap1 in running buffer at a flow rate of 30 μl/min.

T4 sequence (Q14145 other isoform, or with tags, fused parts or gaps limits assumed): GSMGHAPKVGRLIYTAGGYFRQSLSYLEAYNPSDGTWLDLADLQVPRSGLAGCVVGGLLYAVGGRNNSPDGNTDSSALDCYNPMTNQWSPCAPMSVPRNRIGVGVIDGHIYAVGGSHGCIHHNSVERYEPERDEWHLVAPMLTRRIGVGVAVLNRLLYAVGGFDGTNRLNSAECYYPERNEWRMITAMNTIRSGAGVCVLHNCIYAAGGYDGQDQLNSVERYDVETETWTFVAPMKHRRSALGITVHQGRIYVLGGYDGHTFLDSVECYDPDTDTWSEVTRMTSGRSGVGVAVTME
T1 sequence (P01137 279-390 limits assumed): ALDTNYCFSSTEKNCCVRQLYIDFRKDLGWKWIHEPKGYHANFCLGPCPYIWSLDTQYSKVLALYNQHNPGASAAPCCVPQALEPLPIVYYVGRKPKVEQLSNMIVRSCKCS

B1: Fab design 186 (Fab, V domains shown)
VH: EVQLVQSGAEVKKPGESLKISCKGSGYSFTAYWISWVRQMPGKGLEWMGRIIPSVSITNYSPSFQGHVTISADKAISTAYLQWSSLKASDTAMYYCARLLMQGAMLTFDSWGQGTLVT
VL: DIQMTQSPSSLSASVGDRVTITCRASQSIGLALAWYQQKPGKAPKLLIYAASSLQSGVPSRFSGSGSGTDFTLTISSLQPEDFATYYCQQGNTLSYTFGQGTKVEIKR
notes: Fab; Scaffold 3NAC
**Q.** Does B1 bind (TGFβ1 [1])?
**A.** no binding

**Q.** Does B1 bind (TGFβ3 [2])?
**A.** no binding

B2: Fab184 (Fab, V domains shown)
VH: QVQLQQSGPELVRPGVSVKISCKGSGYTFIAEMLHWVKQSHAESLEWIGLIIPAVGITYYNQKFKDKATMTVDIASSTAYLELARLTSEDSAIYYCARSWAEGLFFDYWGQGTLVT
VL: DIVMTQTPKFLLVSAGDKVTITCKASQSVSNALTWYQQKPGQSPKLLIYYASNRYTGVPDRFTGSGYGTDFTFTISTVQAEDLAVYFCQQDYGAPPTFGGGTKVEIKR
notes: Fab; Scaffold 3MXW; also called designed Fab
**Q.** How did the “TGFβ1 IC50 in the reporter gene assay (n = 2)” value (TGFβ1 [3]) turn out when B2 was run?
**A.** 52.8 nM

**Q.** And the “TGFβ2 IC50 in the reporter gene assay (n = 2)” value (TGFβ2)?
**A.** 36.8 nM

**Q.** And the “TGFβ3 IC50 in the reporter gene assay (n = 2)” value (TGFβ3 [4])?
**A.** 10.6 nM

**Q.** And the Kd (TGFβ1 [5])?
**A.** 106 nM

**Q.** And the Kd (TGFβ3 [6])?
**A.** 32.9 nM

B3: LS146-scFv (scFv)
scFv: EVQLVESGGGLVQPGGSLRLSCAASGFAISASSIHWVRQAPGKCLEWVASIDPETGETLYAKSVAGRFTISADTSKNTAYLQMNSLRAEDTAVYYCARAYAGDGVYYADVWGQGTLVTVSSGGGGSGGGGSGGGGSGGGGSDIQMTQSPSSLSASVGDRVTITCRASQSVSSAVAWYQQKPGKAPKLLIYSASSLYSGVPSRFSGSRSGTDFTLTISSLQPEDFATYYCQQSYSFPSTFGCGTKVEIKRTENLYFQ
notes: VH-(Gly4Ser)4-VL followed by a TEV site and His10 tag; also called LS146 formatted as a single chain Fv; scFv-LS146
**Q.** Which results are given for B3?
**A.** fold lower potency than its Fab form (LS146 Fab) [7]: 3 fold; IC50 [8]: 79 nM

B4: G56 Fab (Fab, V domains shown)
VH: EVQLVESGGGLIRPGGSLRLSCKGSGFIFENFGFGWVRQGPGKGLEWVSGTNWNGGDSRYGDSVKGRFTISRDNSNNFVYLQMNSLRPEDTAIYYCARGTDYTIDETGERAQGSGTFWYFDVWGRGTLVTVSS
VL: EIVLTQSPATLSVSPGERATLSCRASQNVHPRYFAWYQQKRGQSPRLLIHSGSTRAAGIADRFSGGGSGMHFTLTITRVEPEDFAVYFCQQYGGSPYTFGQGTRVELR
notes: Scaffold 3U4B
**Q.** Which “Fraction of Fab binding sites occupied @ 500 nM Keap1” value [9] does the source give for B4 here?
**A.** 0.023 fraction

B5: G56.1 Fab (Fab, V domains shown)
VH: EVQLVESGGGLIRPGGSLRLSCKGSGFIFENFGFGWVRQGPGKGLEWVSGTNWNGGDSQYGDSVKGRFTISRDNSNNFVYLQMNSLRPEDTAIYYCARGTDYTIDETGERAQGSGTFWYFDVWGRGTLVTVSS
VL: EIVLTQSPATLSVSPGERATLSCRASRNVHPRYFAWYQQKRGQSPRLLIHSGSTRAAGIADRFSGGGSGMHFTLTITRVEPEDFAVYFCQQYGGSPYTFGQGTRVELR
notes: Scaffold 3U4B
**Q.** With B5 as the binder, how does the “Fraction of Fab binding sites occupied @ 500 nM Keap1” value [9] read?
**A.** 0.027 fraction
